# In patent US9163063B2, “Peptides and nanoparticles for therapeutic and diagnostic applications” (Trustees of Dartmouth College, priority 2009, dated 2015):
# Ends that are not written are not given here. * marks the point of attachment. Biotin = O=C1N[C@H]2[C@H](CS[C@H]2CCCCC(=O)*)N1
# Legend:
# [1] = biological target: T1, PDZ domain of GIPC/synectin (Homo sapiens, UniProt O14908); assay: Phage ELISA / phage binding assay with N-terminal biotinylated peptides; conditions: GIPC-PDZ T7 phage
# T1 construct: dsDNA encoding the PDZ domain of GIPC/synectin was double-digested with EcoRI and HindIII; made in house; host or cells: T7 phage grown in E. coli BLT5403
# T1 sequence (O14908 133-213 limits assumed): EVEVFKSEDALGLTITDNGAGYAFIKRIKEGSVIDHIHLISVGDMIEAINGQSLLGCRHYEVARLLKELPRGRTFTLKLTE
# Protocol: dsDNA encoding the PDZ domain of GIPC/synectin was double-digested with EcoRI and HindIII, and the DNA (0.8 μL of a 45 nM (7.7 ng/μL) solution) was used in the ligation reaction with the T7 Select 10-3 vector arms (Novagen, 0.5 μL), along with 10× ligase buffer (0.25 μL); ATP (10 mM, 0.25 μL, final concentration 1 mM); DTT (100 mM, 0.25 μL); and T4 DNA ligase (0.5 μL, 1 unit/μL). The sample was incubated at 16° C. for 16 h. The T7 phage packaging reaction was performed by adding packaging extract (Novagen, 12.5 μL, or half the manufacturer's recommended amount) to the ligation reaction sample (2.5 μL) and allowing it to incubate for 2 h at room temperature. The reaction was stopped by the addition of a sterile LB medium (135 μL). A plaque assay was performed to determine the number of recombinant phage generated. E. coli BTL5403 was grown at 37° C. with shaking in LB/Amp50 medium (10 mL) until OD˜1.0 was reached. Top agarose (10 mL) was melted and equilibrated to this temperature. A series of dilutions was prepared prior to plating the phage. The first dilution was generated by adding packaged phage (10 μL) to LB/Amp50 (990 μL) for a total of 100-fold dilution (10^2). […] Plaques generated were counted to determine the titer and the number of recombinants generated. […]
# [2] = system: EGFR; assay: EGFR expression after integrin-tail peptide in AsPC1 cells; assay type: cell-based, human; conditions: AsPC1 pancreatic adenocarcinoma cells
# Excerpt: In addition, with its PDZ domain, GIPC is associated with a vast list of transmembrane receptors, including integrin α6 and α 5 that are expressed in several pancreatic cancer cell lines. […] EGFR is a receptor tyrosine kinase highly expressed in pancreatic cancer cells and is a prognostic factor for overall survival. […] A peptide designed to disrupt the interaction between the PDZ domain and the cytoplasmic tail of integrin α 5 and α 6 (KERLTSDA, SEQ ID NO. 8) was utilized.
Substance,binding to the PDZ domain of GIPC/synectin [1],EGFR expression [2]
KKETEV (Biotin-KKETEV),not recognized,
KKETAV,not recognized,
KERLTSDA [K-E-R-L-T-S-D-A],,down regulation of EGFR
